This is an account of results in patent US20120210456A1 (MENDEL BIOTECHNOLOGY, published 2012).

The assay addresses T1, SALT TOLERANCE HOMOLOG2 (STH2) (Arabidopsis thaliana, UniProt Q9LQZ7 1-331, limits assumed).
T1 construct: also called G1482
T1 sequence: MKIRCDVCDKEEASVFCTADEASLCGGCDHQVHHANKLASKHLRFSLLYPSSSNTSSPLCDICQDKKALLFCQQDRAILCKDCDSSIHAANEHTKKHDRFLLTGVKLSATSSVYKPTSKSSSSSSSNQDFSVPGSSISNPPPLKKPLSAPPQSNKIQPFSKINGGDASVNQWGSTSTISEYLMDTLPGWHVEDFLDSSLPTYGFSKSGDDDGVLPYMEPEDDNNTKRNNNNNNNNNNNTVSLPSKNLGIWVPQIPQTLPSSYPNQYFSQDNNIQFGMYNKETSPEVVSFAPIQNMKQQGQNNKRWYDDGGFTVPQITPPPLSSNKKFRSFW
The assay can be described thus: in vitro and protoplast based studies (methods not described).

B1: G1988 (other)
chain: MVSFCELCGAEADLHCAADSAFLCRSCDAKFHASNFLFARHFRRVICPNCKSLTQNFVSGPLLPWPPRTTCCSESSSSSCCSSLDCVSSSELSSTTRDVNRARGRENRVNAKAVAVTVADGIFVNWCGKLGLNRDLTNAVVSYASLALAVETRPRATKRVFLAAAFWFGVKNTTTWQNLKKVEDVTGVSAGMIRAVESKLARAMTQQLRRWRVDSEEGWAENDNV
notes: also called B-box zinc finger transcription factor G1988
For B1, the binding result is recorded as “binds”.
